Source: US20230226096A1 (Orna Therapeutics, Inc., priority 2020, published 2023)

Tested on: HEK293 cells
Assay type: cell-based, human
Settings: luminescence from secreted Gluc in supernatant 24 hours after transfection of HEK293 cells; circular RNA encoding Gluc with the named IRES (UTR truncated to 675 nt)

B1: Aalivirus (nucleic acid, listed as Aalivirus sp.)
DNA: TTGAAAGGGGGTGCTCAGGGTAGCTCCCTGAGCTCTTCCCTCCACCCTCTTTCAACGTCTGGCCCACGATACGGGCCACCTTTCAATCTTAACTAACTATCCCTTTAATCTATTTGGATTTTCTGGTTTAGAATAATTTGGAACACATAATTGGATTATCTTTTAGGATTGTGGATAGGATTTGTTCGGGATATCACTCCCTTCCTGTGCTAACACATATTCTAATTCCCTCCTTTGTCTATTATCTCTTGGAGGTGGTGCTGAAATATTGCAAGCCACTTGAGTGTATAGATGAAGTAGGCTCAAGATGAATGTTGTGTTACTCAAGGCAAGTGTAGCTATCACTAAGATATTGGTAACGTGAAACGGATTACCGGTAGTAGCGTGATCTTCCGTCTTAGTGCTCTAGTGACTAGAGGACAACGACATGGCATCACATATCTTAACCCTCCAGTTTTGGCATCCGGGACAGAATGGGCTGGATATCCGCTTTCTTTCTGGGGTATGTGATGGGTGGTATTGGGGTAACCACCTTGACCATGACGCTCGATAAGAGTGACCGCCTGATCATTGAAACCTCTAGTATAAAATTCAGGCTGAAATC
**Q.** With B1 as the molecule, how does the Expression read?
**A.** Its Expression is 2.65E+05.

B2: Grusopivirus A (nucleic acid)
DNA: TGCCTGAGTAGGATTGTGAATTTAGGTATGAGAGGGTTAGCCAACCCATTCTGAACCATAATAGATACGTCAATCTGAATCCATCTAAATCTATCTCTTAGGCAGTGGTGCTGAAATATTGCAAGCTACTAGGGATAGACGTGATCTGATTCAAGAACCTATCTAATGTGGTGATGAGAAGGCTAGGTTTATCCATAGTAATCCCTTGTTCTGAACAGGCAATGCACATGCTCTAGTAGGATCTCGGGCTCTGCGATTGGCTCTAAACCGACCAATCCAGGTAGAGGCACTAAGTGTAGGACTTGCCAAAATGTATTACATGCTGGTACCGACTCACTAGTCTGGAAACTCCACACTGAAAGTGACTGGGGGGGGCCCCATCACATTTGTGCTACTGCTTGATAGAGTTGCGGCTGGTCAACTTGGATTGGTATAACCAGTTGAA
modifications: Grusopivirus A
**Q.** How did the Expression turn out when B2 was run?
**A.** Its Expression is 1.09E+05.

B3: Grusopivirus B (nucleic acid)
DNA: GCCATCCGTAGGTTCTGGTAAGGTTCCATCAACTGTTGGGGCGCTAGTTGCTATGACCGCATTCACGGACGGATGATTTATAGTATCACCCAATCCGGGCACAACTTCTTTAGCCACTTCTTCCACATTACTAAGGGCTCTCTTGCCGAGTTTCAACGTCTAGTCCACGACACGGACCTTCCTACTTTTCTATCTTCTTATTTTCTCTACTAAATTGGTATCTGGTACTGAAGATATGCGGATTGTGATTTTGTGCCTGTCTAAACTAACCCTATTCTAGGGTTAGGTGGGTACCATATACTAATGGTGAACAGGATTACCTATGTATCCATTAGTCCCTATGGATCTGGCGACCCACAAACTCATGTTCATAGAGAGGCTAAGCTGAGTGCTCGCCGAATAAGCATTGCTTCAGGTGCCGACTATTGTCTGGAAACCACTCAGTGATAGCTATAGGGGGGGGCCCCGTAGCATCTGCCTTACTGCCTGATAGGGTGGCGGCTGGTCCATGAACATGCAGTAACCAGTTGACTTGAC
modifications: Grusopivirus B
**Q.** For B3, which Expression is on record?
**A.** Its Expression is 2.12E+05.

B4: Yancheng osbecks grenadier anchovy picornavirus (nucleic acid)
DNA: CCTTAGGGTCTGGAATGCGTCCTTTCTGGGCACTTCCACAATCCTAAGGTAATTTTCAACGCCAGCGATGGAGCGATATCCAAAGAACCTTTATGTTTTAGTTCGTCTTGTATGTTTATAAAATATAAAATTGGGATTAGCAACCCACAAAAACATTTTTGTTATTCTCACCACATGAGAGGGTGGTTAAACCTCTTCGTAACCTATCTTGCTTGATTGGCTACTTGGGCTAGATTTAGGACAACCTCTTTAGCAAGCCTAAATTACTCCTCGTACTTGCACCTGGTAACAGGCGTACCTGGAGGTTACGGTGGCGCTAACTTGGACTTCTCGTTAATTCGTGCAAGTTTAAATGATGCCTATTTTGAATACAAGAAAGTATGATAGTAACTTAGGGCGTGAAGTTCCGCTTAACATAAGGCAGTATAAGTACTAAGATAAGGTGTAAGACCTACCTTAATAACTGTTGTCTTTTCTCATGGTCTTTCCGTGGGAGCCCTTGCTAGGGGTAAAGTTAAGTATTCTCAAATAATTTTTCATTCAAACTCTTTCTCTCTGTTTT
**Q.** B4 was tested. Which Expression did it give?
**A.** Its Expression is 1.57E+06.

B5: Turkey Gallivirus M176 (nucleic acid, listed as Gallivirus sp.)
DNA: CCACTCGCACTTCCTGGATAGTGCGTTAGATATGCCCGACATATCGCTTCCAGGACCAAAGCCCCCCTTTTCTCTTTCCCAACCAGCTTCGCCACTCAAGCTGTAATTCCATGTCCGGTCTTTCCGGCCTTAGTATCATGGAAATGTGGTCGTGCTCAAATGAAATTGAGTTGACATTGATCAATGAAAGTTGCACTGAACTTTGCTAAACTGGCTAGCGCCACCTGGTGTGTGCCGTTGGTCTCCTCACATGGTAACATGTGCCAACGGGCCCGAAAGGCTAGTGGGCAATTACCGCTCCAAGGGAGGGGTACCCACCCCGACCTGAACAGCGGTAATGAAGCTCACCTCCCAGGCTCTGACCCCGAGAAGTTTAGTTATTTAGTAGGTGTAATTAGTACTTGTGATTGGTCAATTTGATAGTAGTTTGAAACGTTATGGATGAATGAGTAGACCCCCTGAAGGTACCCCATTACATGGGATCTGATCAGGGCCACATTCTGCGTGTCTCCCCGCACTTGTGGTTAAAACCATGAAAGTTCATCCCAAACAATCTTTTCCTCTTCTTTTTCTTTTAGTGGTGACAACCTACTGGATTGGTGATTACCAATCTGTACTAGTGTTGTATTAAGACTTGTTGTGTGGAGAAAATGGACTCTTTCAAGAAGATTTTTG
**Q.** For B5, which Expression is on record?
**A.** Its Expression is 4.37E+05.

B6: Falcovirus A1 (nucleic acid)
DNA: TAAAAGGGGACGCGGTGTGGCAGCTTTGGCTGTCATGCCGTGTTCTCCTTTTACCCCAAGGACTAGCCTTGGGGGTTTTCCAAATTCCTTTCCCTGTAGGCTTTACTTCTCTTTATCTATCTTTTCTGTAACTAAGTTTTGCCTATTCTAAAAATATTTTAGAATGTGTTTGGATGTAACTAAGTTTGTGCCTGCCCTAAAAATATTTTAGGGCTTGTTTGGATAACCTCGTCCCTTGTGTTCAGTGCCGCACAATTTGCTAGGCACTGTTCACTTCCTTTGTTTGTCCATTATGTATGCTAAGGTATGAATTCCATCATATGCTTAGCCTCTACATGCATAATCTTATTCCCTCCCTGGTGCAAACTACGCCCCCAACATATGTGAATCTTTTAAGCATATTCCTGACCCCACACATATATATGTGTTCTCGTGAATTCCCCCACCGTGAGGTGGTCACTTGGACGTGGTGTGTGTCACACAGCATATATATGATGCAGGATGTTGTTTTTAAGATAAGCATATGTCCTTAGTGCTTTGCATCATTTCCTCCACACCCCGTGAATGCGGCTAATCTTAACCCTGTTGGGTCCGTGGGTAAACCAACCCATTAACCACAGGACGGAACCGACTACTTTCGGGAGTGTGTGTTTCTTTTTCTTCTTTTGTCACT
**Q.** With B6 as the molecule, how does the Expression read?
**A.** The Expression was 1.48E+05.

B7: Tremovirus B (nucleic acid)
DNA: TTCAAATGGCCCCTGGGTTGATACCCAGTGGTCATTTGGACACTTTGGTAAGGAGGTGTAATTATCCTTCCCATGTGGAACCTAGTGCTTAGGTTTACTTTATATGTTCTTTGTTTGTCCTTTGTACTTTCTATCGGGCAATCTTGTTGTTCAATACAATATGTATTTGAACTGCCTAAGATAAATTCAGTTTTCAACCAACCCCTCTCTTGGGGTTGTGTCTTTCTTTCTTTCTTATATCCTCTTAAGCTGACTTACTTGCTAATCCGACTCCTCGTCAACGGGAGGGTAAAGCAGTATCACTAGGGTATTGTGATGTAGGAGAAAAAGTAAGTAGAGATAGTGCATGTAACGAAAGTGACTTGGTACTTTAAACTCTCTTAATCCCAAAGTGTGGTATTGGTCATGTTGGAGTAGGCTACGGGTGAAACTCCTTCACATTTAGTAATGTGTTCACACGCTAACGCTACGGTAGATGACAGACTAGGTCTTATTCTCAACGTAGGGGGACGGGTGTATGTTCATGATTAGCCACATATTAAGGTTTTGAGGGGCTGAGTCATATAAGTATGTGCATTAATTTCTGGTACTGGTCCCTGGGGACTGGCCCTTTTCTAGGTTGATTTTAGTTTCCCCAATTTTTAAAAACTAATGAGATTTACGAC
modifications: Tremovirus B
**Q.** For B7, which Expression is on record?
**A.** The Expression was 1.31E+05.

B8: Didelphis aurita HAV (nucleic acid)
DNA: TCTTTGGTCTGGGGAACTAAAATACCAGACCCGCGTTTGCCTAGCGATATAGGCTTTAATTGTTGTTTGTCATTGTGCGTTTGATATGTGTTTTAATGTAAATAATAATTCTAGCAGGTTCTAGTTCTTGATCATGTCCTCTTTAAGGCACTCATTTCAACTTGCTATCTTTCTTTTCTTCCTTGGTTCTCCCTACACCAAATGCACTGGCCGCTGCGCCCGGCGGGGTCAACCACATGATTAGCATGTGGCTGTAGGTGTTGAAGGCTGGGACATGAACATCAATGGAATAGTGCGCATGCTTACTGGGGTCCATTGAAGTAGTGGGATCTTTCTATTGGGGTAGGCTACGGGTGAAACCCCTTAGGTTAATACTCATATTGAGAGATACCTTGGATAGGTTAACTGTGCTGGATATGGTTGAGTTTAACGACAAAAAGCCATCAACAGCTGTGGACAGAACCTCATCCTTAGATTGCTCACTATGGATATGTGCTCTGGGCGTGTTTCTTGCATGATGGCCATTGGTCAATTCATGCCTGGGCCAATGTAGGATTAGCCTTAAATTACTTTTTAAAAGTAGCCTCATTTAGCTGGACTAATGGTGGGGCGTATGATCCTGCATTTGGCCTCTGGGGTAATCAGGGGCATTTAGGTTTCCACATAATAGCAAAT
modifications: Hepatovirus A
**Q.** For B8, which Expression is on record?
**A.** Its Expression is 1.38E+05.

B9: Hepatovirus G1 (nucleic acid, listed as Hepatovirus sp.)
DNA: GCAAGGGGTGGTTTTAACCTTGCACGCGTTTACCGTGCGTTAACGGTTTTCCATGTTTGTATGTCTTGTTTGTATTATGTGTTTTGTAAATATTAATTCCTGCAGGTTCAGGGTTCTTTAATCATGTTGGGCTGTACCCACACTCAACTTTTGGCCATAAGTGAGTTTCTTAACGAACCTTTTAACACAGGATGTTATTAGGGCCCAATATTTTCCCTGAGGCCTTCTTTGGCCTCTATTTTTTCCCCTTTTCTATCTCCTTGTATTCCGGGCTCACGTGATGCCAATGGACTGACCCATGCGCCCGTGGGGGTTAACTACTGGAGTAGCCAGTAGCTGTAGGTGCTAAAAGTCACGTACGTGTAAGACTGGACGAGACCTCTCAGCTATAACTGAAAGTAGTAAGTATGTCTGAACTTCTTGAAGGGGTAGGCTACGGGTGAAACCCCTTAGGTTAATACTCATATTGAGAGATACCTCTGATAGGTGAAGGTTTCCGGTAGAGGTGAGTTTAACGACAAAGCCTCTCAACGGATGTGGGCCCACCTCATCAGCAAGATGCTTTCATACCCAATACCGTAGGGGCTGGGTTGTTGAGTTCAGTCCCAAGCGTCCCTCCCGCAAGGTTGTAGGGGTACTCAGGGGCATTTAGGTTTCCACAATTAAACAAATACA
**Q.** Which Expression does the source give for B9 here?
**A.** Its Expression is 1.41E+05.
